Test results reported in the supplement of paper PMC12764529.
± gives the half width of the 95% confidence interval.

How the values were obtained:
[1] = folding stability dG unfold from trypsin proteolysis; higher = more stable
In short: (§1)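 Unfolding free energy was derived, per protease or combined, by relating Bayesian-fitted K50 values from sequencing counts to a sequence-predicted unfolded-state K50 and a shared folded-state K50. The underlying digests exposed cysteine-free mini-proteins under 80 residues, in a PA-tagged cDNA display construct, to trypsin and chymotrypsin at 11 threefold-diluted concentrations and to a no-protease condition. A filter kept only designs with AlphaFold2 dimer inter-PAE above 15.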

[2] = folding stability dG unfold (combined trypsin and chymotrypsin); higher = more stable
In short: as §1

[3] = folding stability dG unfold from chymotrypsin proteolysis; higher = more stable
In short: as §1

| Sequence | folding stability dG unfold [1] [kJ/mol] | folding stability dG unfold [2] [kJ/mol] | folding stability dG unfold [3] [kJ/mol] |
| --- | --- | --- | --- |
| SAGWIIRITLPDNGRTIEIDFENGYIIKITSPDEGKPRVIPIPPDDIREWIKELFPGPVRIVEIYPLPKSAG [r5_519_TrROS] | 9.26 ± 0.176 | 11.3 ± 0.347 | 12.9 ± 0.209 |
| SAGGKVKIVKIEIEEVDGKLKIRIVVEVDTPEDLEALKKAGVKKLKVEKRRLPNGRLLVVIEVEVEVKSAGG [r13_506_TrROS_Hall] | 10.3 ± 0.322 | 14.3 ± 0.259 | 16.1 ± 0.31 |
| SAGGSAKPVMVRIKFPNMPPEKLQDAFQEYGMQPQNMDPNKGEMIIMIPWEAAEEIQDKNGFKIEISAGGSA [r15_731_TrROS] | -2.05 ± 0.669 | 1.35 ± 1 | 3.35 ± 0.711 |
| SAGGMIKLEFENPDGMRIKIEIDRIHRFDPDNGYLIIPVKIEVEPPGKPREIDGTIILPPGMPPGQPLSAGG [r13_823_TrROS] | 8.54 ± 0.795 | 5.96 ± 1 | 3.39 ± 0.343 |
| SAGGSAGGSKKKKVIEIKISEEELKKLGLTKEEIAKKLAEKFPNIKKNVRIEKNKDGTLKIYVSAGGSAGGS [r12_50_TrROS_Hall] | 5.11 ± 0.301 | 4.94 ± 1.3 | 5.33 ± 0.385 |
| SAGGSAGGSAGGSPLVIKVDGPAEKLIEEIKKLFPNAKVLSIETHPDGGVTLVVEKIDESAGGSAGGSAGGS [r4_95_TrMRF] | 5.77 ± 0.293 | 8.48 ± 0.628 | 9.83 ± 0.289 |
| SAGGSSVLINHTKTFSSEEEAEKEAEELKEKAKKEGFDEVKVEISKDPSGGTYTLKVTIKKKLPPDLKSAGG [r19_92_JUSTAS] | 8.22 ± 0.326 | 12 ± 1.09 | 13.4 ± 0.301 |
| SAGMVEVLEEKTDPNSDLVTVTLYAPDVPDGFRVVVYPKDGVPIEISIKRGEEVVLKLPANVEKIEFIGSAG [r14_671_JUSTAS] | 10.7 ± 0.347 | 10.5 ± 0.385 | 10.1 ± 0.184 |
| SAGMKPGDMRPVEIPFEIYQYDDGGPKPVAPMTIKIMVNPDEGYVMLEIENPGNGEPVIIFTLPADDISAGG [r19_413_TrROS] | 6.89 ± 0.23 | 9.02 ± 0.418 | 10.1 ± 0.238 |
| SAGKTIVVPTEEEAEKLAKELAEETGKEVEIVKVEKEKKKDGYEVYTIKVKLKDNNKTIEIKIVRPKEKSAG [r5_173_TrROS_Hall] | 6.35 ± 0.711 | 6.5 ± 1.05 | 6.13 ± 0.46 |
| SAGGSAGGSAGFKVPPGWKIVNTYRSPESGYPTAILRDPGDNKPLIFDFDNGKIMPAKDISAGGSAGGSAGG [r11_268_TrROS] | 1.22 ± 0.46 | -0.745 ± 2.3 | -2.24 ± 2.89 |
| SPVLEKIRKLVEELLKKLGIEVKEGETVEIEITLPDGSTIRITFDAKTKKITVEITIDGKKVTLTLEIKPSA [r9_426_TrROS_Hall] | 17.6 ± 1.26 | > 25.1 | 23.8 ± 3.01 |
| SAGGPGFQRYPYTLELPDGRKITVEYWRMGDNPYVQIDIRHDGEPLGTIHVPVPSPDQIEDAAKDIISAGGS [r16_55_TrROS] | 4.94 ± 0.238 | 6.62 ± 0.301 | 7.44 ± 0.226 |
| SAGGEELMKDHPNFIFITIEIRHPGGGKEKPKFMIMIPNNTPEELIDELRDFLPPGYKIKDVEIHYMDSAGG [r13_849_TrROS] | 10.1 ± 0.544 | 8.97 ± 0.711 | 7.19 ± 0.402 |
| SAGGSAGGSAEEPEFEIVSVEYDPETNVLTVVVRDKKTGRLYVFRFYPDGTVEVREVSLEDLSAGGSAGGSA [r18_521_TrROS_Hall] | 14.1 ± 0.268 | 19.8 ± 0.318 | 21 ± 0.238 |
| SAGITITVPPGKPYYVHITMYMFDPNGKLMGPQTIMFPIRVPPDDTIEIPIPFDSPNIRITDISIMPKSAGG [r19_295_TrROS] | 8.28 ± 0.243 | 10 ± 0.669 | 10.6 ± 0.393 |
| SMNPIGNPITLPDGTTITIIPDLGLILIYDPETGTFIARLILVDENGIPHIFPFIGKIDPETGEIIEIDPSA [r9_122_TrMRF] | 13.9 ± 0.46 | 16.2 ± 0.289 | 17.3 ± 0.259 |
| SADLAKNIAKKLNPDIKDVQIKDIELQPNPDNGYPVIKVELEVKMNDGPYKKSIWFMPNGFQIKIQPVPSAG [r14_397_TrROS] | 3.28 ± 0.711 | 6.01 ± 1.21 | 7.43 ± 0.879 |
| SAGGSAGAPLVLAEVELDPETGEVRIRVYDPVTGKVYEYTTPGSLADAIREIERETGIPITEVVVASAGGSA [r15_101_TrMRF] | 14.5 ± 0.414 | 15.2 ± 0.322 | 15.6 ± 0.305 |
| SAGGSAGGSMVEEFLASLPPDATVTVDPSTGVVTVSLPAEGRTLTLTVDTATGTVTETERRPESAGGSAGGS [r12_82_JUSTAS] | 6.54 ± 0.117 | 7.14 ± 0.113 | 7.373 ± 0.0314 |
| SAGGSAGGSAGSPIDTLVEEKTFTLPNGEKVIEATLKRPPGEPVHVVTIETKDSVIVELESAGGSAGGSAGG [r17_316_JUSTAS] | 2.15 ± 0.0795 | 1.93 ± 0.205 | 1.27 ± 0.36 |

| Sequence | folding stability dG unfold [1] [kJ/mol] | folding stability dG unfold [2] [kJ/mol] | folding stability dG unfold [3] [kJ/mol] |
| --- | --- | --- | --- |
| SAGGSAGGKITINGKEYEIVEVKYDKETNTLHFLIKNKDGTLLKISISPNGKIEIKEVPAEELLSAGGSAGG [r6_699_TrROS_Hall] | 14.2 ± 0.962 | 15.8 ± 0.962 | 15.6 ± 0.502 |
| SAGGSATPEEIAKKFFENHPELEPVEVKLEKFKIPGLKIWVVKVEITLKFKDNSKKKIPVVAVFPVSAGGSA [r15_266_TrMRF] | 8.44 ± 0.276 | 11.4 ± 0.31 | 12.6 ± 0.163 |
| SGREEEIAEELREKLLAEGYTEVEVEIEVRPDPNSDNVLVTVTVRATKKDAEGNWKTYEETIPVLIPAEASA [r9_440_JUSTAS] | 13.1 ± 1.09 | 13 ± 1.05 | 13.5 ± 0.628 |
| SAGGSAGGSAGGSMKITKTLIPETGLYKVTITLPGGKPVEIEAPPSSSLEEVKKKAEKLSAGGSAGGSAGGS [r4_205_JUSTAS] | -0.484 ± 0.502 | -0.606 ± 1.09 | -0.707 ± 1.09 |
| SAGGSAGGSAPVAYTITITYRDPDGSTRTLTLTFPNLTPEEAKEAAEALPIPASVVSIDITKASAGGSAGGS [r12_886_JUSTAS] | 9.35 ± 0.247 | 13.8 ± 0.343 | 15.67 ± 0.146 |
| SAGGSAGGSAGGEKKWIFMVSFRHPDGKERKFTFPWNDLEEIKENLPGIDDVEIEWMPMSAGGSAGGSAGGS [r10_437_TrROS] | -0.105 ± 0.837 | 3.23 ± 0.795 | 4.02 ± 1.17 |
| SAGGSAGGSAGGKPVKLEISFDKETNTITIKAVDEENKTVTETTIKVTFLPPPPPPPPKSAGGSAGGSAGGS [r10_331_TrROS_Hall] | 4.58 ± 0.502 | 8.48 ± 2.01 | 8.95 ± 1.55 |
| SAGGSAGGMVKLKVYKIPESVPPELRALLEALVEGEGEVEVEPEEAEALLKLPGIEELEVEELESAGGSAGG [r6_381_TrMRF] | 3.82 ± 0.0879 | 6.64 ± 0.322 | 7.7 ± 0.247 |
| SAGGSASIGEELAKELFPDLPLKVEPKEVPLEDGKTETVVTATFPDGKKVTITFEGDKIVEVTEVESAGGSA [r15_417_JUSTAS] | 1.86 ± 0.397 | 3 ± 0.46 | 4.16 ± 0.31 |
| SAGGSAGGEEIAKKLRDLAKKLGLDVEIKKIEVTKYPLPEGDENKEEKWVTTITITVNGKKITLSAGGSAGG [r6_686_TrROS_Hall] | 9.29 ± 0.222 | 9.9 ± 0.339 | 10.6 ± 0.255 |
| SAGGSAGGEIPADAEIEEFEFGGKPYFLVRFPDGTAALYERKGDKWELIATVPVPPDSRIFFKGSAGGSAGG [r6_475_TrMRF] | 3.96 ± 0.155 | 4.69 ± 0.172 | 4.97 ± 0.36 |
| SAGGSAGGSAMEINEIVKETAKKGKNLTITVKLPDGSTVTITVTPDEDVPEDLEVLEVTVKSAGGSAGGSAG [r3_421_JUSTAS] | 1.44 ± 0.209 | 5.86 ± 0.234 | 7.44 ± 0.159 |
| SAGGSAGGSAGEVVLSPTDKTLTLTSFDPKTGVTYYTVFYPATGTTSTTSTGNLESLIAASAGGSAGGSAGG [r17_300_JUSTAS] | 5.25 ± 0.1 | 3.89 ± 0.351 | 2.22 ± 0.544 |
| SAGGSAGGSAGGMTTVTTLETRPLPDGTTVTREVVTDENGTVVSTTVSRVSPEGVVTAESAGGSAGGSAGGS [r10_1014_JUSTAS] | -0.0474 ± 0.209 | 2.61 ± 0.23 | 4.06 ± 0.105 |
| SAGGSAGGSAPLIELRPPEEPLFLPLENLLGRGIPLEELAKLLEKLTGRKVEPVKPGYIRTGSAGGSAGGSA [r18_7_TrMRF] | -0.805 ± 1.59 | -0.673 ± 1.84 | -0.535 ± 1.05 |
| SAGGKEKVKIKIKIIDKKTNKVYEAEATFDKETGKVTITFPDGSKITFDLKTNKLYIEKDGKIIEIESAGGS [r16_743_TrROS_Hall] | 11.1 ± 1.13 | 13.3 ± 1.17 | 14.8 ± 0.381 |
| SAGPAPGAPWEKVEIVAEAWVPTAGGKAVPVVLARAPDGSLLATFPDGTVRVVVPGAGPEVTVELPLASAGG [r19_199_TrMRF] | 0.482 ± 0.192 | 6.78 ± 0.272 | 8.503 ± 0.0669 |
| SAGGMEEIEVEFEFTLPDGRTLRLTVRVRRFDGGIVVEVDVGGEEEEEREFMEEVAREIAERIAEEESAGGS [r8_416_TrMRF] | 12.2 ± 0.293 | 17.2 ± 0.389 | 18.9 ± 0.46 |
| SAGPPVLALFTGSPEDVQELLDRLPPDFEVEVGRLPDLYVARFPPDVPPGTVLLPGADGRPAVVEVVEASAG [r5_123_TrMRF] | 2.2 ± 0.172 | 4.76 ± 0.502 | 7.03 ± 0.155 |
| SAGGSAGGSAGGPYWRVKIEWMDPNGKKKEHTFTFPPGWPLEEIAEELKPNGYKIEVEPLSAGGSAGGSAGG [r7_226_TrROS] | 4.02 ± 0.184 | 6.11 ± 0.356 | 7.1 ± 0.418 |
| SAGGSSPWLERALEEARELMKNDPPGKEVEAKVKVPYPTPDGQQQPMKFRIRMTYKNNKIKEIEITSAGGSA [r2_173_TrROS] | 3.81 ± 0.46 | 3.44 ± 0.711 | 2.17 ± 1.05 |
